Data on 2 molecules can be found in patent US20240174765A1 (ACADEMIA SINICA, published 2024).

Assay [1] has as its target T1, enolase 1 (ENO1), endogenous in CL1-5 human lung cancer cells (human, UniProt P06733 2-434).
T1 construct: whole, on cells; Used for ENO1 on the surface of live or fixed CL1-5 cells, and for endogenous ENO1 in CL1-5 membrane extracts and lysates (cross-link IP, co-IP); also called alpha-enolase; surface form ENO1
The experiment in a line: flow cytometry on live cells. (In general: In flow cytometry, cells or beads pass a laser one at a time.)

For assay [2], the target named is T1, enolase 1 (ENO1), endogenous in CL1-5 …. The experiment in a line: flow cytometry on live CL1-5 cells.

T1 sequence (P06733 2-434): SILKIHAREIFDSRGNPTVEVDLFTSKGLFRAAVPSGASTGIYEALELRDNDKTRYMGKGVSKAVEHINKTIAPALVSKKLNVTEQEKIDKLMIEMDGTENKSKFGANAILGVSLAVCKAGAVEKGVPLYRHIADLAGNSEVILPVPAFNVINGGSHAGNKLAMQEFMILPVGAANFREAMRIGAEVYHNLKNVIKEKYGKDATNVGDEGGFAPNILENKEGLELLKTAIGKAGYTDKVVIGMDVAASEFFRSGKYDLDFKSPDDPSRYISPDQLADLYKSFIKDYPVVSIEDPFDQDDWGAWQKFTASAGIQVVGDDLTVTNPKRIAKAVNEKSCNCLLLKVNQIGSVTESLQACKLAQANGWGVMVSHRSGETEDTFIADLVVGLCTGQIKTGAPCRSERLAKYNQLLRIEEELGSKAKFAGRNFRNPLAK

B1: chimeric ENO1-22 (chENO1-22) (antibody, V domains shown)
VH: QVQLQQSGPEVVRPGVSVKISCKGSGYTFTDYAMHWVKQSHAKSLEWIGVISTYNGNTNYNQKFKGKATMTVDKSSSTAYMELARLTSEDSAIYYCARSPLRYWGQGTTLTVSS
VL: QIVLSQSPAILSASPGEKVTMTCRASSSVSYMHWYQQKPGSSPKPWIYATSNLASGVPARFSGSGSGTSYSLTISRVEAEDAATYYCQQWSSNPLTFGAGTKLELK
notes: Variable domain of anti-ENO1 mAb-22 cloned into a human IgG Fc vector; also called chimeric ENO1 mAb; chimeric ENO1 antibody
Consider B1, for which, in assay [1], the binding result was “binds”.

B2: anti-ENO1 mAb-22 (antibody, V domains shown)
VH: B1 VH
VL: B1 VL
notes: Mouse hybridoma monoclonal antibody; also called ENO1-22; anti-ENO1 mAb-22 antibody
With B2, the binding result in assay [2] is listed as “binds”.
